# Measured values taken from patent US20220281931A1 (published 2022).
# B1: BCL6^241-260 peptide (peptide)
# peptide: EYSRPTLEVSPNVCHSNIYS
# B2: SIAH1^SBD (tag-cleaved) (enzyme)
# chain: VANSVLFPCKYASSGCEITLPHTEKADHEELCEFRPYSCPCPGASCKWQGSLDAVMPHLMHQHKSITTLQGEDIVFLATDINLPGAVDWVMMQSCFGFHFMLVLEKQEKYDGHQQFFAIVQLIGTRKQAENFAYRLELNGHRRRLTWEATPRSIHEGIATAIMNSDCLVFDTSIAQLFAENGNLGINVTISMC
# How the values were obtained:
# [1] = target: B2; test: ITC
# [2] = target: BCL6^5-360 (ITC) (UniProt P41182 5-360); test: ITC; also printed as Kd = 1.6 uM
Kd [1],Kd [2],Binder
6.3 µM,,B1
,1.57 µM,B2
